We go through one molecule from publication PMC2711901 (Nature structural & molecular biology, 2009).

The target in this experiment is T1, GST-Ubc9 (S. pombe, UniProt P40984 1-157).
T1 sequence (looked up): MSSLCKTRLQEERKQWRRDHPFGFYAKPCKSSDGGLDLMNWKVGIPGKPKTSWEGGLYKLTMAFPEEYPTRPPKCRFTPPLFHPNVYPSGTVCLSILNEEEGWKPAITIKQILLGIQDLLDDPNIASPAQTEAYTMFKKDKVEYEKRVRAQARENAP
Put plainly: pull-down.

B1: 6His-Rad60 SLD2 (domain or fragment, S. pombe, UniProt Q9USX3 332-406, looked up)
chain: KLITLLLRSSKSEDLRLSIPVDFTVKDLIKRYCTEVKISFHERIRLEFEGEWLDPNDQVQSTELEDEDQVSVVLD
As for B1, the binding result is “binds”.
